In FireProtDB (doi:10.1006/jmbi.2000.3958):

Details: Schizosaccharomyces pombe (strain 972 / ATCC 24843); pH 7.5; 25 °C; Urea; Fluorescence; Tris 50 mM; whole UniProt chain shown

B1: Cyclin-dependent kinases regulatory subunit wild type, P08463 (protein)
chain: MSKSGVPRLLTASERERLEPFIDQIHYSPRYADDEYEYRHVMLPKAMLKAIPTDYFNPETGTLRILQEEEWRGLGITQSLGWEMYEVHVPEPHILLFKREKDYQMKFSQQRGG
With B1 the denaturant m value was 1.63 kcal/mol/M and the “denaturant midpoint (higher = more stable)” value was 4.42 M.
